Test results: patent US20110287011A1 (ONCOMED PHARMACEUTICALS, published 2011)

Tests used:
Experiment in all cases: FACS on HEK293 cells transfected with the DDR1 variant
[1] = molecular target: FLAG-tagged human DDR1 S175A variant (human, UniProt Q08345 19-913)
Experimental: (§1) Full length cDNA encoding FLAG-tagged human DDR1 variants were transiently transfected into HEK293 cells using standard procedures as known to one skilled in the art. To determine the capacity of antibodies to bind the DDR1 variants, antibodies were incubated with HEK293 cells transfected with plasmid encoding either wild type DDR1 or one of the point mutation variants. All cells were co-transfected with plasmid encoding GFP. The cells were analyzed by FACS as described herein for binding of the antibodies to wild type DDR1 and to DDR1 variants.

[2] = molecular target: FLAG-tagged human DDR1 R105A variant (human, UniProt Q08345 19-913)
Experimental: as §1

[3] = molecular target: FLAG-tagged human DDR1 L110A variant (human, UniProt Q08345 19-913)
Experimental: as §1

[4] = molecular target: FLAG-tagged human DDR1 D68A variant (human, UniProt Q08345 19-913)
Experimental: as §1

[5] = molecular target: FLAG-tagged human DDR1 E113Q variant (human, UniProt Q08345 19-913)
Experimental: as §1

Measured: binding result

Chain of FLAG-tagged human DDR1 R105A variant (Q08345 other isoform, or with tags, fused parts or gaps R105A R105A limits assumed): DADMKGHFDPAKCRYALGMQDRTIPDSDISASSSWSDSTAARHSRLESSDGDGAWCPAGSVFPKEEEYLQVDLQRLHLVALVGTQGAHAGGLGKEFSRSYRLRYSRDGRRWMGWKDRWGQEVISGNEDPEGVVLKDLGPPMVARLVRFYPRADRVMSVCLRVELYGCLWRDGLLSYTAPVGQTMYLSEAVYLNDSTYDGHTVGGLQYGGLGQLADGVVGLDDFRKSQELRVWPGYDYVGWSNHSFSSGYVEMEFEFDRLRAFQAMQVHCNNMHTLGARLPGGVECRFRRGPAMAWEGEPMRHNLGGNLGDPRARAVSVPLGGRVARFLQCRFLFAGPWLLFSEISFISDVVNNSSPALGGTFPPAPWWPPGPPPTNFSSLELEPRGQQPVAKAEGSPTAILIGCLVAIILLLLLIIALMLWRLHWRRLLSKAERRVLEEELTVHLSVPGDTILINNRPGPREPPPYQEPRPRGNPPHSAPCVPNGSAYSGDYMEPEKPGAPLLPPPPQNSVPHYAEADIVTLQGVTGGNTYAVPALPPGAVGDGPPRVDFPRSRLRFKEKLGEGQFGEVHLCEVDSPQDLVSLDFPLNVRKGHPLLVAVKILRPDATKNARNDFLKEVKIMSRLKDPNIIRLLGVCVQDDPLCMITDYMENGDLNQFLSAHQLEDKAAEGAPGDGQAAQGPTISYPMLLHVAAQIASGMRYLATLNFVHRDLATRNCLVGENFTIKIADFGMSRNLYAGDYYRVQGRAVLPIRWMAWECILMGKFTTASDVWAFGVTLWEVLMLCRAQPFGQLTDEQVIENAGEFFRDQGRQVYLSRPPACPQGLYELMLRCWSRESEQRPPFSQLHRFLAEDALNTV
Chain of FLAG-tagged human DDR1 D68A variant (Q08345 other isoform, or with tags, fused parts or gaps D68A D68A limits assumed): as the sequence (Q08345 other isoform, or with tags, fused parts or gaps R105A R105A limits assumed) above, with D50A, A87R counted along it
Chain of FLAG-tagged human DDR1 S175A variant (Q08345 other isoform, or with tags, fused parts or gaps S175A S175A limits assumed): as the sequence (Q08345 other isoform, or with tags, fused parts or gaps R105A R105A limits assumed) above, with A87R, S157A counted along it
Chain of FLAG-tagged human DDR1 L110A variant (Q08345 other isoform, or with tags, fused parts or gaps L110A L110A limits assumed): as the sequence (Q08345 other isoform, or with tags, fused parts or gaps R105A R105A limits assumed) above, with A87R, L92A counted along it
Chain of FLAG-tagged human DDR1 E113Q variant (Q08345 other isoform, or with tags, fused parts or gaps E113Q E113Q limits assumed): as the sequence (Q08345 other isoform, or with tags, fused parts or gaps R105A R105A limits assumed) above, with A87R, E95Q counted along it

B1: antibody 20M102 (antibody, mouse IgG1, kappa, V domains shown)
VH: EVQLQQSGSELVKPGASVKMSCKASGYTFTDYFMKWVKQSHGKSLEWIGDINPNNGDTFYIQKFKGKATLTVDKSSSTAYMQLNSLTSEDSAVYYCSRDLAYWGQGTLVAVSS
VL: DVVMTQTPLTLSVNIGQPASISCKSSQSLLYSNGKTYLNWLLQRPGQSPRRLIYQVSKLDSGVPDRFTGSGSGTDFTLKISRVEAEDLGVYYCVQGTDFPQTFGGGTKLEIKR
notes: Mouse monoclonal IgG purified from hybridoma supernatant; also called anti-DDR1 antibody 20M102; hybridoma ATCC PTA-10051
binds: all assays above
